Target: the molecule itself
Assay: crystal structure; micro-electron diffraction (micro-ED) of M9I microcrystals grown in batch: 6 mg/ml peptide in 1% DMSO mixed 1:1 with 0.1 M sodium phosphate pH 4.6, 1.5 M NaCl, room temperature; 1.05 Å, direct methods

B1: M9I, the first 9 N-terminal residues of Drosophila Orb2A (peptide)
peptide: MYNKFVNFI
notes: Dissolved in 100% DMSO, then diluted in water or buffer; Terminal protecting groups are not mentioned; also called M9I-WT; wildtype M9I; source: synthetic peptide, bought: Genscript (>98% purity)
B1: binds.

From PMC9556795, “Micro-electron diffraction structure of the aggregation-driving N terminus of Drosophila neuronal protein Orb2A reveals amyloid-like β-sheets” (The Journal of Biological Chemistry, 2022)
